Assay: yeast display, Sf9 membrane polyspecificity reagent, FACS + sequencing; frameworks hold sequencing errors
Summary of the method: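 Sorting gates, low and high (top ~1%), were placed on anti-HA fluorescence to track expression and on streptavidin fluorescence to track reagent binding. A clone's polyreactivity label is taken from the gate it came out of. The reagent was 10% biotinylated, detergent-solubilized Sf9 membrane, applied for 1 hour at 4 °C to galactose-induced yeast display cells.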

Sequence | polyreactivity (PSR sort gate)
QVQLVESGGGLVQAGGSLRLSCAASGFTFRFNAMGWYRQAPGKERELVAAIRYSSGSTYYADSVKGRFTISRDNAKNTVYLEMNSLKPEDTAVYYCAAEQDYNRGYVTGRYYYWGQGTQVTVSS | high polyreactivity
QVQLVESGGGLVQAGGSLRLSCAASGFTFRFYAMGWYRQAPGKERELVAAISRSGGDTYYADSVKGRFTISRDNAKNTVYLQMNSLKPEDTAVYYCNKATYRVAGRDFDYWGHGTQVTVSS | high polyreactivity
QVQLVESGGGLVQAGGSLRLSCAASGFTFRFYAMGWYRQAPGKERELVAAISRSGGDTYYADSVKGRFTISRDNAKNTVYLQRNRLIPEDTAVYYCNKATYRVAGRDFDYWGQGTQVTVSS | high polyreactivity
QVQLVESGGGLVQAGGSLRLSCAASGFTFRFYAMGWYRQAPGKERELVAAISSSSSSTYYADSVKGRFTISRDNAKNTVYLQMNSLKPEDTAVYYCNAGGYTRGDYWGQGTQVTVSS | high polyreactivity
QVQLVESGGGLVQAGGSLRLSCAASGFTFRFYAMGWYRQAPGKERELVAAISYNGGSTYYADSVKGRFTISRDNAKNTVYLQMNSLKPEDTAVYYCAAGYYWQYTSSSAQYAYDYWGQGTQVTVSS | low polyreactivity
QVQLVESGGGLVQAGGSLRLSCAASGFTFRGNAMGWYRQAPGKERELVATISRGGNTNYADSVKGRFTISRDNAKNTVYLQMNSLKPEDTAVYYCAAVSYIRSKVAYNYWGQGTQVTVSS | low polyreactivity
QVQLVESGGGLVQAGGSLRLSCAASGFTFRGNVMGWYRQAPGKERELVAGISSTGSTYYADSVKGRFTISRDNAKNTVYLQMYSVKPVDTAVYYCAAAAIYFRYDYWGQGTQVTVSS | high polyreactivity
QVQLVESGGGLVQAGGSLRLSCAASGFTFRGYAMGWYRQAPGKERELVAAISNGGGTNYADSVKGRFTISRDNAKNTVYLQMNSLKPEDTAVYYCNAPGYRAENPGFDYWGQGTQVTVSS | high polyreactivity
QVQLVESGGGLVQAGGSLRLSCAASGFTFRGYTIGWYRQAPGKERELVAAITWSGGSTYYADSVKGRFTISRDNAKNTVYLQMNSLKPEDTAVYYCASYAWYGYVYHHLYDYWGQGTQVTVSS | high polyreactivity
QVQLVESGGGLVQAGGSLRLSCAASGFTFRIYTMVWYRPAPRKERELVAAISSRGGSTYYADSVKGRFTISRDNAKNTVYLQMNSLKPEDTAVYYCAASGRVYSSGYDYWGQGTQVTVSS | high polyreactivity
QVQLVESGGGLVQAGGSLRLSCAASGFTFRKYVMGWYRQAPGKERELVAGISRSGSRTYYADSVKGRFTISRDNAKNTVYLQMNSLKPEDTAVYYCAADAAHSEYDYWGQGTQVTVSS | high polyreactivity
QVQLVESGGGLVQAGGSLRLSCAASGFTFRPYAMGWYRQAPGKERELVAAISTSGATTYYADSVKGRFTISRDNAKITVYLQMNSLKPEDTAVYYCNKVYWHHPWEYGYWGQGTQVTVSS | high polyreactivity
QVQLVESGGGLVQAGGSLRLSCAASGFTFRQYAMGWYRQAPGKERELVAAISRSGSRTYYADSVKGRFTISRDNAKNTVYLQMNSLKPEDTAVYYCAARSYYNGKISRVGYWGQGTQVTVSS | high polyreactivity
QVQLVESGGGLVQAGGSLRLSCAASGFTFRRNAMGWYRQAPGKERELVAAITYNGGTTYYADSVKGRFTISRDYAKNTVYLQMNSLKPVDTAVYYCNAPYGRQGYDYWGQGTQVTVSS | low polyreactivity
QVQLVESGGGLVQAGGSLRLSCAASGFTFRRNAMGWYRQAPGKERELVAVITSSARTNYADSVKGRFTISRDNAKNTVYLQMNSLKPEDTAVYYCNAYRYRQSSSDKYGYWGQGTQVTVSS | high polyreactivity
QVQLVESGGGLVQAGGSLRLSCAASGFTFRRNTMGWYRQEPGKERELVAAITQRGGSTYYADSVKGRFTISRDNAKNTVYLQMNSLKPEDTAVYYCAVERHSYIYKYDYWGQGTQVTVSS | high polyreactivity
QVQLVESGGGLVQAGGSLRLSCAASGFTFRRYALGWYRQAPGKERELVAGITGRGGSTYYADSVKGRFTISRDNAKNTVYLQMNSLKPEDTAVYYCNKPRAARGYMTGQLDYWGQGTQVTVSS | high polyreactivity
QVQLVESGGGLVQAGGSLRLSCAASGFTFRRYAMGWYRLAPGKERELVAAISQSGGRTYYADSVKGRFTISRDNAKNTVYLQMNSLKPEDTAVYNFAKDAAGGRHYDYWGQGTQVTVSS | high polyreactivity
QVQLVESGGGLVQAGGSLRLSCAASGFTFRRYAMGWYRQAPGKEREFVAAITRSSGRTYYADSVKGRFTISRDNAKNTVYLQMNSLKPEDTAVYYCNRDTSIRHYNYWGQGTQVTVSS | high polyreactivity
QVQLVESGGGLVQAGGSLRLSCAASGFTFRRYAMGWYRQAPGKERELVAAISNGGSTYYADSVKGRFTISRDNAKNTVYLQMNSLKPEDTAVYYCAADIYSYFWWPYYYWGQGTQVTVSS | high polyreactivity
QVQLVESGGGLVQAGGSLRLSCAASGFTFRRYAMGWYRQAPGKERELVAAITRDDSTNYADSVKGRFTISRDNAKNTVYLQMNSLKPEDTAVYYCAARLWYPYYYWGQGTQVTVSS | high polyreactivity

Sequence | polyreactivity (PSR sort gate)
QVQLVESGGGLVQAGGSLRLSCAASGFTFRRYAMGWYRQAPGKERELVATITIGGSTSYADSVKGRFTISRDNAKNTVYLQMNSLKPEDTAVYYCAAVANPNRYRFDYWGQGSQVTVSS | high polyreactivity
QVQLVESGGGLVQAGGSLRLSCAASGFTFRRYAMGWYRQAPGKERVLVAAISRGGSSTYYADSVKGRFTISRDNAKNTVYLQMNSLKPEDTAVYYCNARTYVALGFNYWGQGTQVTVSS | high polyreactivity
QVQLVESGGGLVQAGGSLRLSCAASGFTFRRYDMGWYRQAPGKERELVATINRGGSTDYADSVKGRFTISRDNAKNTVYLQMNSLKPEDNAVYYCAADSYSTCADDYWGQGTQVTVSS | high polyreactivity
QVQLVESGGGLVQAGGSLRLSCAASGFTFRRYTMGWYRQAPGKERELVAAISRSGGSTFYADSVKGRFTISRDYAKNTVYLQMNSLKPEDTAVYYCNAGRTYTALNGDYWGQGTQVTVSS | high polyreactivity
QVQLVESGGGLVQAGGSLRLSCAASGFTFRSYAMGWYRQAPGKERELVASISWSGTSTYYADSVKGRFTISRDNAKNTVYLQMNSLKPEDTAVYYCNKYPSFYGAGYYWGQGTQVTVSS | high polyreactivity
QVQLVESGGGLVQAGGSLRLSCAASGFTFRSYAMGWYRQAPGKERELVAVISSSGGSTYYADSVKGRFTISRDNAKNTVYLQMNSLKPEDTAVYYCNRRPATRAYLYDYWGQGTQVTVSS | high polyreactivity
QVQLVESGGGLVQAGGSLRLSCAASGFTFRTNAMGWYRQAPGKERELVAAISTGARTYYADSVKGRFTISRDNAKNTVYLQMNSLKPEDTAVYYCNKVLRRFLSRYDYWGQGTQVTVSS | high polyreactivity
QVQLVESGGGLVQAGGSLRLSCAASGFTFRTNLMVWYRQAPGKERELVAVITRDGGSTYYADSVKGRFTISRDHAKNTVYLQINSLKPEDTAVYYCNAAAFINFILYDYWGQGTQVTVSS | high polyreactivity
QVQLVESGGGLVQAGGSLRLSCAASGFTFRTYAMGWYTQAPGKERELVADISGSGGSTYYADSVKGRFTISRDNAKNTVYLQMNSLKPEDTAVYYCAADYASWSNWGYEYWGQGTQVTVSS | high polyreactivity
QVQLVESGGGLVQAGGSLRLSCAASGFTFRTYGMGWYSQAPGKERELVAAISRSSATTYYADSVKGRFTISRDNAKTTVYLQINSLKPEDTAVYYCNAGDLGRRWGMDYSGQGTQVTVSS | low polyreactivity
QVQLVESGGGLVQAGGSLRLSCAASGFTFRVYAMGWYRQAPGKERDLVAPISLRGDRTYYADSVKGRFTISRDYAKNTEYLQMNRLKPEDTAVYYCHAYASYQISQDDYDYWGQGTQVTVSS | high polyreactivity
QVQLVESGGGLVQAGGSLRLSCAASGFTFRVYAMGWYRQAPGKERELVAAISSGGSTNYADSVKGRFTISRDNAKNTVYLQMNSLKPEDTAVYYCAARQRYYSERPQYSGFYYWGQGTQVTVSS | high polyreactivity
QVQLVESGGGLVQAGGSLRLSCAASGFTFRVYAMGWYRQAPGKERELVAAITSGSSTTYADSVKGRFTISRDNAKNTVYLQLNSLKPEDTAVYYCNARRRGRVTGSYGYWGQGTQVTVSS | high polyreactivity
QVQLVESGGGLVQAGGSLRLSCAASGFTFRWNAMGWYRQAPGKERELVAAITNDDSTYYADSVKGRFTISRDNAKNTVYLQMNSLKPEDTAVYYCNARYGRYLDLDTGVALAGRGYWGQGTQVSVSS | low polyreactivity
QVQLVESGGGLVQAGGSLRLSCAASGFTFRWYAMGWYRQEPGKERELVAAITSSGGRTYYADSVKGRFTISRDNAKNTVYLQMNSMKPEDTAVYYCATDLRTRKYDYWGQGTQVTVSS | high polyreactivity
QVQLVESGGGLVQAGGSLRLSCAASGFTFRWYTMGWYRQAPGKERELVASIRYGGGSTYYADSVKGRFTISRDNAKNTVYLQMNSLNPEDTAVYYCAAESAWTSPYDYWGQGTQVTVSS | high polyreactivity
QVQLVESGGGLVQAGGSLRLSCAASGFTFRYNAMGWYRQAPGKERELVAAISSDGITSYADSVKGRFTISRDNAKNTVYLQMNSLKPEDTAVYYCAADWRWYSAWHFGYWGQGTQVTVSS | high polyreactivity
QVQLVESGGGLVQAGGSLRLSCAASGFTFRYNAMGWYRQAPGKERELVAAISSRGGSTYYADSVKGRFTISRDNAKNTVYLQMNSLKPEDTAVYYCALYGGLGDRFRPRYYWGQGTQVTVSS | high polyreactivity
QVQLVESGGGLVQAGGSLRLSCAASGFTFRYNAMGWYRQAPGKERELVATISWRGTSTYYADSVKGRFTISRDNAKNTVYLQMNSLKPEDTAVYYCATRSRDQYSVSYRLDYWGQGTQVTVSS | low polyreactivity
QVQLVESGGGLVQAGGSLRLSCAASGFTFRYNAMGWYRQAPGKKGSWVAAISRTGGSTYYADSVKGRFTISRDNAKNTVYLQMNSLKPEDTAVYYCARAPEGTGGKYGYWGQGTQVTVSS | high polyreactivity
